Drawing on publication PMC12134178, this text covers Kd for two substances.

The target of the test is mCerulean3-BaxΔCTS. As to the kind of experiment: FRET or BRET; quantitative fast FLIM-FRET (qF3) in live HCT116 DKO cells stably expressing the donor ^CBaxΔCTS (1 to 3 µM) and transiently the Venus acceptor (0 to 50 µM); 10 µM Q-VD-OPH; fit to a Hill equation with h = 1; apparent Kd. (Bioluminescence resonance energy transfer reports proximity on the nanometre scale.)

Take Venus-tBid (domain or fragment): the Kd came to 16.3 µM.

Take “Venus-tBid(Nes2-BH3 C-ter) chimera (from UniProt P70444 1-81; P70444 101-195)”: the Kd stood at 17 µM.
